Results reported in patent publication CN111320686A.
Values joined by “and” are separate entries in the source; they are usually repeats but may differ in a detail not shown here. Equal entries are not always repeated.

Columns and labels:
[1] = target: H7N9病毒的HA蛋白(购自ACROBiosystems) (H7N9 influenza virus)
[2] = target: H7N9病毒的HA蛋白(购自ACROBiosystems) (H7N9 influenza virus); remark: listed apart in the source
[3] = target: H7N9病毒 A/Anhui/1/2013 的血凝素HA (on live virus) (H7N9 influenza virus A/Anhui/1/2013); experiment: cell-based or functional assay

B1: 抗H7N9全人源单克隆抗体2G3 (antibody, V domains shown)
VH: QVQLVESGAEVKKPGASVKVSCKASGYIFTSYEINWVRQATGQGLEWMGWMNPESGETGFAQKFQGRVTMTRNTSITTAYMELSSLTSEDTAVYYCATGNAECSGGSCYNWFEPWGQGTLVTVSS
VL: SSELTQDPAVSVALGQTVRITCQGDKLKSYYASWYQQKPGQAPVLVIYGRNNRPSGIPDRFSGSSSGNTASLTITGAQAEDEADYYCNSKETSGYHLVFGGGTKLTVLV
[1]
  Kd: 2.3 nM
[2]
  450nm (OD): 1.6 OD 450nm and 2 OD 450nm and 1.78 OD 450nm
[3]
  微量中和-ELISA (MDCK细胞, 100TCID50 病毒) IC50: 0.0711 µg/mL
